T1: Recombinant human MerTK-human Fc Chimera protein (human, UniProt Q12866 26-499, limits assumed)
T1 construct: bought construct; also called MerTK-Fc (R&D systems, Cat #391-MR-100)
T1 sequence: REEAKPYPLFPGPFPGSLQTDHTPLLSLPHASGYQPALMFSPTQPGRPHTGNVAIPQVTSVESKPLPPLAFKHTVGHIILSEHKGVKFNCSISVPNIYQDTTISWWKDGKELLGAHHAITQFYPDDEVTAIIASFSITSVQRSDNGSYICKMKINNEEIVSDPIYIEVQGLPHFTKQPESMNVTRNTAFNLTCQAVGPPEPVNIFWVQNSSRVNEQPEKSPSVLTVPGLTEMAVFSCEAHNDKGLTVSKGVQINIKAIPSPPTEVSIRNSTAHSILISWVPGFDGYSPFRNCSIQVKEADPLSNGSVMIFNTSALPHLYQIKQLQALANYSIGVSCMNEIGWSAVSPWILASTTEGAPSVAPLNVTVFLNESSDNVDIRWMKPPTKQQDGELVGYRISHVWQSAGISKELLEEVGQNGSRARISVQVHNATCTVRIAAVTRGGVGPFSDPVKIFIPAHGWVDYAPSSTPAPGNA

T2: Full Axl (ECD domain of human Axl) (human, UniProt P30530 26-451)
T2 construct: also called human Axl ECD
T2 sequence: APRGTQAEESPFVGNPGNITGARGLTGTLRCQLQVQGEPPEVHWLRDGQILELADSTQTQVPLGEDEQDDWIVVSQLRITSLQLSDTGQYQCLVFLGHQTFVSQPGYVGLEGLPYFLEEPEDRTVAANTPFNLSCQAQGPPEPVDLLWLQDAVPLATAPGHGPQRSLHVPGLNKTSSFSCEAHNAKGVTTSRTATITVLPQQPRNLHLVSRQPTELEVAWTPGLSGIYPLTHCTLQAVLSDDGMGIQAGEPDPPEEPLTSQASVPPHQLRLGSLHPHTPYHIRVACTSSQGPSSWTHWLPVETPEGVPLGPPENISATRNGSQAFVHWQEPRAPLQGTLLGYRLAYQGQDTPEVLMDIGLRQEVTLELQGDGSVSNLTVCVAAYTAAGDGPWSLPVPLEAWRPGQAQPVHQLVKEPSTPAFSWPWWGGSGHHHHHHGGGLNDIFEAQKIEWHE


Columns and labels:
[1] = target: T1, Recombinant human MerTK-human Fc …; assay: blocking ELISA, ProS-His on MerTK-Fc, Ab 66.6 nM, isotype=100%
Procedure: Briefly, rabbit anti-human IgG antibody (Jackson ImmunoResearch, Cat #309-005-008) was coated at 2 μg/ml onto high-protein binding plates at 4° C. overnight. After washing with 0.05% Tween20 in PBS three times, 5% BSA in PBS was added for 1 hour. Recombinant human MerTK-human Fe Chimera protein (R&D systems, Cat #391-MR-100) was added at 2 μg/ml for 1 hour and plates were washed before the addition of 40 μl of anti-MerTK hybridoma supernatants and 40 μl of His tag-conjugated recombinant Gas6 (R&D systems, Cat #885-GSB-050) at 3 μg/ml or His tag-conjugated recombinant ProS (R&D systems, Cat #9489-PS-100) at 20 μg/ml. After a further incubation for 1 hour, plates were washed and incubated for 1 hour with HRP-conjugated anti-6×His tagged antibody (Abcam, Cambridge, MA, Cat #ab1187). Plates were then washed and an HRP substrate, TMB, was added to develop the plates. The reaction was stopped by adding 50 μl 2N H₂SO₄ and the OD was measured using a spectrophotometer (BioTek).
Anti-MerTK antibodies were titrated to a final concentration from 66.6 nM to 4 pM and tested against anti-human MerTK antibody M6 (disclosed in WO2016/106221) or isotype control antibody.

[2] = target: T2, Full Axl (ECD domain of human Axl); assay: SPR (data not shown)
Procedure: Binding of anti-MerTK antibodies of the present disclosure to these domain-swapped chimera or deletion mutants was tested by Surface Plasmon Resonance (SPR) using Carterra LSA. Purified anti-MerTK antibodies were immobilized in duplicate on a HC30M chip (Carterra) by amine coupling, following the manufacturer's instructions (described previously).
Supernatants containing the constructs were diluted 1:1 with running buffer containing 0.5 mg/mL BSA (HBS-TE, Carterra; BSA, Sigma) and injected over the immobilized antibodies. The surface was regenerated with 10 mM Glycine pH2.0 after each construct injection. Sensorgrams were analyzed using Carterra Epitope software to identify patterns of construct binding. Loss of binding to MerTK constructs with domains deleted or swapped in from Axl and/or gain of binding to Axl constructs with MerTK domains swapped in were evaluated. Data from these studies were used to construct a domain binding map for anti-MerTK antibodies and their binding to various domains of human MerTK.

| Percent ProS ligand binding [1] [%] | binding result [2] | Binder |
| --- | --- | --- |
| 116 | no binding | MTK-210 (antibody, human IgG1, V domains shown) VH: QVQLQQSGPELVKPGASVKISCKASDYEFSRSWMNWVKQRPGKGLEWIGRIYPGDGDTNYNGKFKGKATLTADKSSNTAYMQLNSLTSEDSAVYFCARKGGYYYSISNYFDYWGQGTTLTVSS VL: QIVLTQSPAIMSASPGVKVTMTCSASSSVSYMHWYQQKPGSSPRLLIYDTSNLASGVPVRFSGSGSGTSYSLTISRMEAEDAATYYCQQWSSYPPYTFGGGTKLEIK |
| 63.4 | no binding | MTK-220 (antibody, V domains shown) VH: EVQLVESGGGLVKPGGSLKLSCAASGFTFSDYGMHWVRQAPEKGLEWVAFISGGSGTIYYEDTVKGRFTISRDNAKNTLFLQMTSLRSEDTAMYYCTRGGNYFDYWGQGTTLTVSS VL: NIMLTQSPSSLAVSAGEKVTMTCKSSQSVLYSSNQKNYLAWYQQKPGQSPKLLIYWASTRESGVPDRFTGSGSGTDFTLTISNVQAEDLAVYYCHQYFSSWTFGGGTKLEIK |
| 53.4 | no binding | MTK-202 (antibody, human IgG1, V domains shown) VH: EVQLVESGGGLVKPGGSLKLSCAASGFTFSDFGMHWVRQVPEKGLEWVAFISGGSNTIYYTDTVKGRFTISRDNAKNTLFLQMTSLRSEDTAMYYCVRNGNSFAYWGQGTLVTVSA VL: NIMMTQSPSSLAVSAGEKVTMNCKSSQSVLYSSNQKNYLAWYQQKPGQSPKLLIYWASTRESGVPDRFTGSGSGTDFTLTISNIQAEDLAIYYCHQYFFSWTFGGGTKLEIK |
| 101 | no binding | MTK-204 (antibody, human IgG1, V domains shown) VH: EVQLVESGGGLVKPGGSLKLSCAASGFTFSDYGMHWVRQAPEKGLEWVAYISSGTSTIYYEDTVKGRFTISRDNAKNTLFLQMTSLRSEDTAMYYCARGGLLFDYWGQGTTLTVSS VL: NIMMTQSPSSLAVSAGEKVTMSCKSSQSVLYSSNQKNYLAWYQQKPGQSPKLLIQWASTRESGVPDRFTGSGSETDFTLTIRSVQAEDLAVYYCHQYFSSWTFGGGTKLEIK |
| 132 | no binding | MTK-206 (antibody, human IgG1, V domains shown) VH: QVQLQQSGAELARPGASVKMSCKASGYTFTSYTMHWVKQRPGQGLEWIGYINPSSGYIKNSQKFKDKATLTADKSSSTAYMQLSSLTSEDSAVYYCARTVYGYYGSSPDYWGQGTTLTVSS VL: DIQMTQSPSSLSASLGERVSLTCRASQDIGSNLNWLQQEPDGTIKRLIYATSSLESGVPKRFSGSRSGSDYSLTISSLESEDFVDYYCLQYDSSPWTFGGGTKLEIK |
| 100 | no binding | MTK-219 (antibody, human IgG1, V domains shown) VH: QVQLQQSGADLMKPGASVKLSCKATGNTFTGYWIEWVKQRPGHGLEWIGEILTGSGSTNYNERFKGKATFTADTSSNTAYMQLSSLTTEDSAIYYCAGSYFTNSWFPYWGQGSLVTVSA VL: DIVLTQSPASLAVSLGQRATISCRASESVDSYGNSFMHWYQQKPGQPPKLLIYRAYTLESGIPARFSGSGSRTDFTLTINPVEADDVATYYCQQSNEDPRTFGGGTKLEIK |
| 88.2 | no binding | MTK-222 (antibody, human IgG1, V domains shown) VH: QVQLQQSGADLMKPGASVKLSCKATGYTFTGYWIEWVKQRPGHGLEWIGEILTGSGSSNYNEKFKGKATFTADSSSNTAFMQLSSLTTEDSAIYYCAGSYYSNSWFPYWGQGSLVTVSA VL: DIVLTQSPVSLAVSLGQRATISCRASESVDSYGSSFMHWYQQKPGQPPKLLIYRASSLESGIPARFSGSGSRTDFTLTINPVETDDVATYYCQQSNEDPRTFGGGTKLEIK |
| 186 | no binding | MTK-225 (antibody, human IgG1, V domains shown) VH: EVQLQQSGPELVKPGASVKIFCKASGYTFTAYNMDWVKQSHGKSLEWIGDINPNNGGTIYNQKFKGKATLTVDKSSSTAYMELRSLTSEDTAVYYCARRRRYGNTYYWYFDVWGTGTTVTVSS VL: DIQMTQSPASLSVSVGETVTITCRASENIYSSLAWYQQKQGKSPQLLVYAATNLADGVPSRFSGSGSGTQFYLKINGLQSEDFGSYYCQHFWGTSYTFGGGTKLEIK |
| 43.2 | no binding | MTK-213 (antibody, human IgG1, V domains shown) VH: QVQLQQPGAELVKPGASVKMSCKASGYTFTSYWITWVKQRPGQGHEWIGEIYPGIGSTNYNEKFKSKATLTVDTSSRTAYMQLSSLTSEDSAVYFCARGAYTKYYFDYWGQGTTLTVSS VL: DIVMTQSHKFMSTSVGDRVSITCKASQDVGDAVAWYQQKPGQTPKLLIYWASTRHTGVPDRFTGSGSGTDFTLTISNVQSEDLADYFCQQYSSYLMYTFGGGTKLEIK |
| 175 | no binding | MTK-226 (antibody, human IgG1, V domains shown) VH: QVQLQQSGPELVKPGASVKISCKASGYSFTSYYIHWVKQRPGQGLEWIGWIFPGNGNTKYNENFRGKATLTADTSSSTAYMQLSSLTSEDSAVYYCARLGLIYALDYWGQGTSVTVSS VL: DAVMTQTPLSLPVSLGDQASISCRSSQSLESSNGNTYLHWYLQKPGQSPQLLIYRVSNRFSGVLDRFSGSGSGTDFTLQISRVEAEDLGVYFCLQVTHVPFTFGSGTKLEIK |
| 117 | no binding | MTK-229 (antibody, human IgG1, V domains shown) VH: QVQLQQSGPELVKPGASVKISCKASGYEFSRSWMNWVKQRPGKGLEWIGRIYPGDGDTNYKGKLKGQATLTADKSSSTAYMQLSSLTFEDSAVYFCARGGGYYYDSRYEGFVYWGQGTVVTVSA VL: QIVLTQSPAIMSASPGEEVTMTCSASSSVSYMHWYQQKSGTSPKRWIYDTSKLASGVSGRFSGSGSGTSYSLTISSMEAEDAATYYCQQWSSNPPITFGAGTKLELK |
| 37.4 | no binding | MTK-223 (antibody, human IgG1, V domains shown) VH: DVQLQESGPGLVKPSQSLSLTCSVTGYSITSGYYWNWIRQFPGNKLEWMGYISYDGTNNYNPSLKNRISITRDTSENQFFLKLNSVTTEDTATYFCVRGAGYWGQGTTLTVSS VL: not shown |
| 152 | no binding | MTK-231 (antibody, human IgG1, V domains shown) VH: DVQLQESGPGLVKPSQSLSLTCSVTGYSITSGYYWNWIRQFPGNKLEWMGYISYDGTYNYHPSLKNRISITRDTSKNQFFLTLNSVTTEDTATFYCTRGGGYWGQGTSVTVSS VL: DVVMTQTPLSLPVSLGDQASISCRSSQSLVHSDGNTYLHWYLQKPGQSPKLLIYKVSNRFSGVPDRFSGSGSGTDFTLKISRLEAEDLGIYFCSQTTHIPLTFGSGTKLEIK |
| 45.8 | no binding | MTK-212 (antibody, human IgG1, V domains shown) VH: QVQLQQSGPELVKPGASVKISCKASGYAFSSSWVNWVKQRPGKGLEWIGRIYPGDGDSNYNGNFKGKATLTADKSSNTAYLQLSSLTSEDSAVYFCARKSHFIYYTLDYWGQGTPVTVSS VL: DIVMTQSHKFKSTSVGDRVSIACKASQDVGTSVAWYQQKPGKSPKLLIYWASSRHTGVPDRFTGSGSGTDFTLTISNVQSEDLTDYFCQQYSTYPYTFGGGTKLEIK |
